Assay results published in patent US20040009165A1.

Target: macrophage mannose receptor on murine macrophage cell line J774E (murine) (UniProt Q61830)
Assay: cell-based or functional assay

| Substance | Vmax for uptake in J774E cells |
| --- | --- |
| Cerezyme (recombinantly produced glucocerebrosidase) (from UniProt P04062 40-536) (enzyme) | 0.518 |
| pGC54: GCB-GGGG linker-Saposin C fusion protein (enzyme) | 0.871 |
